Test results: publication PMC4112721 (Plant Biotechnology Journal, 2013)

B1: VRC01 from transiently transformed Nicotiana benthamiana plants (antibody, V domains shown)
VH: QVQLVQSGGQMKKPGESMRISCRASGYEFIDCTLNWIRLAPGKRPEWMGWLKPRGGAVNYARPLQGRVTMTRDVYSDTAFLELRSLTVDDTAVYFCTRGKNCDYNWDFEHWGRGTPVIVSS
VL: EIVLTQSPGTLSLSPGETAIISCRTSQYGSLAWYQQRPGQAPRLVIYSGSTRAAGIPDRFSGSRWGPDYNLTISNLESGDFGVYYCQQYEFFGQGTKVQVD
notes: IgG1 kappa; plant-codon-optimized genes, both chains on one pTRAk.2 vector; also called VRC01 transient; transient plant-derived VRC01
B2: VRC01 from HEK cells (antibody, V domains shown)
VH: B1 VH
VL: B1 VL
notes: as the heavy chain of m1; as the light chain of m1; IgG1 kappa; also called VRC01 HEK; HEK-cells-derived VRC01; source: HEK cells, purified
B3: VRC01 from stably transformed (transgenic) Nicotiana tabacum plants (antibody, V domains shown)
VH: B1 VH
VL: B1 VL
notes: as the heavy chain of m1; as the light chain of m1; IgG1 kappa; source: N. tabacum cv

Target: T1, HIV-1 envelope glycoprotein gp120 IIIB (HIV-1 group M subtype B, isolate IIIB …, UniProt P03375)
T1 construct: gp120 surface glycoprotein, cut product of the HIV-1 Env precursor, isolate IIIB; also called recombinant gp120 III; HIV gp120 IIIB; source: purified recombinant; NIH ARRRP
Assay: SPR; Protein A amine-coupled on a CM5 chip, VRC01 captured to about 100 RU, gp120 IIIB injected at 20 ug/mL; BIAcore X-100, 25 °C, HBS-EP+ (10 mM HEPES pH 7.4, 150 mM NaCl, 3 mM EDTA, 0.05% surfactant P-20); 1:1 Langmuir fit; triplicate
Settings: both partners purified

Binder | Kd [nM]
B1 | 1.68
B2 | 0.66
B3 | 1.39
